From publication PMC11389873 (Free radical biology & medicine, 2022)

Tests used:
[1] = target: Purified recombinant human apo-IDO1 (His6-IDO1), Alexafluor 647-labelled (human, UniProt P14902 1-403, Alexafluor 647 on Cys groups); assay: fluorescence polarisation
[2] = target: Purified recombinant human apo-TDO (GST-TDO), Alexafluor 647-labelled (human, UniProt P48775 1-406, Alexafluor 647 on Cys groups); assay: fluorescence polarisation
Sequence of Purified recombinant human apo-TDO (GST-TDO), Alexafluor 647-labelled (P48775 whole entry): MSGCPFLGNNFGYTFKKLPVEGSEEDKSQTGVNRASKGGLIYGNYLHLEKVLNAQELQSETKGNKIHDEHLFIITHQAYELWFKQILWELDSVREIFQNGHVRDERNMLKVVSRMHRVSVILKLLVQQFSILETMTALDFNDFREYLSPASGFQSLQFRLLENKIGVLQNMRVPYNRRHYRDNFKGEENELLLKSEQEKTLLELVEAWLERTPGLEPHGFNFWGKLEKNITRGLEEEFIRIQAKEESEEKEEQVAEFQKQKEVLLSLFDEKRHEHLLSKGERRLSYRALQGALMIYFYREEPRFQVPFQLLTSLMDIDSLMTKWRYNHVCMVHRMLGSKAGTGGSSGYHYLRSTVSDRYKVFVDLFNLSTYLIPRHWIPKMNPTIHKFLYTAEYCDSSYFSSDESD

Sequence of Purified recombinant human apo-IDO1 (His6-IDO1), Alexafluor 647-labelled (P14902 whole entry): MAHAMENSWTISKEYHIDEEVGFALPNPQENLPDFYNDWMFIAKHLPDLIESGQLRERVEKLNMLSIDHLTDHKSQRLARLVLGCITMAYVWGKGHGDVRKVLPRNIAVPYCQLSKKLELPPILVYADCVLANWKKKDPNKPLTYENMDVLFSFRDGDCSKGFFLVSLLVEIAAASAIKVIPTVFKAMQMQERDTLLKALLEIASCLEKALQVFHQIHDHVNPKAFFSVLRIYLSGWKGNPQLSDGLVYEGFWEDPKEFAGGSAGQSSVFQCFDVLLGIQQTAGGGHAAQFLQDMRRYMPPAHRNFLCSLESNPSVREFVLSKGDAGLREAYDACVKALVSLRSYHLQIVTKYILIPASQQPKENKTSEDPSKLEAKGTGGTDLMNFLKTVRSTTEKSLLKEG

B1: Purified GST-tagged human GAPDH (natural protein)
chain: not shown
Kd [1]: 1500 ± 1300 nM | Kd [2]: 1200 ± 400 nM
